Test [1] deals with T1, human prostate specific membrane antigen (PSMA) on LNCaP prostate cancer cells (human, UniProt Q04609 1-750).
T1 construct: whole, on cells; also called PSMA-expressing LNCaP cells
Kind of test: flow cytometry on LNCaP cells, FITC-labeled anti-human IgG detection. The protocol: The human PSMA-expressing prostate cancer cell line LNCaP was used to determine the specificity of anti-PSMA human monoclonal antibodies by flow cytometry. Binding of the 2F5, 2A10, and 2C6 anti-PSMA human monoclonal antibodies was assessed by incubating the LNCaP cells with the anti-PSMA human monoclonal antibodies at different concentrations. The cells were washed and binding was detected with a FITC-labeled anti-human IgG Ab. Flow cytometric analyses were performed using a FACScan flow cytometry (Becton Dickinson, San Jose, Calif.). The human anti-PSMA monoclonal antibody 7F12 (as described in PCT Publication WO 03/064606) was used as a positive control and a non-PSMA specific isotype control antibody was used as a negative control. The results are depicted in FIG. 9. The anti-PSMA human monoclonal antibodies 2F5, 2A10, and 2C6 bound specifically to the PSMA-expressing LNCaP cells.

Test [2] addresses T2, PSMA immunopurified from LNCaP cells (human, UniProt Q04609 1-750).
T2 construct: also called purified PSMA; immunopurified PSMA
Kind of test: ELISA on PSMA immunopurified from LNCaP cells, HRP goat anti-human IgG (kappa chain-specific) detection. The procedure: A comparison of anti-PSMA antibodies on binding to immunopurified PSMA was performed by standard ELISA to examine the specificity of binding for PSMA.
PSMA was immunopurified from LNCaP cells and tested for binding against the anti-PSMA human monoclonal antibodies 1C3, 2A10, 2F5, and 2C6. Standard ELISA procedures were performed. The anti-PSMA human monoclonal antibodies were added at a concentration of 5 μg/ml and titrated down at 1:2 serial dilutions. Goat-anti-human IgG (kappa chain-specific) polyclonal antibody conjugated with horseradish peroxidase (HRP) was used as secondary antibody. The human anti-PSMA monoclonal antibody 7F12 was used as a positive control and a blank was used as a negative control. The anti-PSMA human monoclonal antibodies 2A10 and 2F5 bound with high specificity to PSMA.

Test [3] concerns the target T1, human prostate specific membrane …. Kind of test: cell-based or functional assay.
Test [4] shares this target. Kind of test: Scatchard analysis, 125I-labelled antibody on LNCaP cells. The protocol: The binding affinity of the 2A10 antibody for the PSMA-expressing prostate cancer LNCaP cell line was tested using a Scatchard analysis.
LNCaP cells were obtained from ATCC(CRL-1740) and grown in RPMI media containing 10% fetal bovine serum (FBS). The cells were trypsinized and washed once in Tris based binding buffer (24 mM Tris pH 7.2, 137 mM NaCl, 2.7 mM KCl, 2mM Glucose, 1 mM CaCl₂, 1 mM MgCl₂, 0.1% BSA) and the cells were adjusted to 2×10⁶ cells/ml in binding buffer. Millipore plates (MAFB NOB) were coated with 1% nonfat dry milk in water and stored a 4° C. overnight. The plates were washed three times with 0.2 ml of binding buffer. Fifty microliters of buffer alone was added to the maximum binding wells (total binding). Twenty-five microliters of buffer alone was added to the control wells (non-specific binding). Varying concentration of ¹²⁵I-anti-PSMA antibody was added to all wells in a volume of 25 μl . Varying concentrations of unlabeled antibody at 100 fold excess was added in a volume of 25 μl to control wells and 25 μl of LNCaP cells (2×10⁶ cells/ml) in binding buffer were added to all wells. The plates were incubated for 2 hours at 200 RPM on a shaker at 4° C. […] The filters were removed and counted in a gamma counter. […]

Test [5] shares this target. Kind of test: radioligand competition on LNCaP cells: unlabeled antibody varied against a fixed concentration of 125I-7F12. The procedure:
(§1) LNCaP cells were obtained from ATCC(CRL-1740) and grown in RPMI media containing 10% fetal bovine serum (FBS). The cells were trypsinized and washed once in Tris based binding buffer (24 mM Tris pH 7.2, 137 mM NaCl, 2.7 mM KCl, 2 mM Glucose, 1 mM CaCl₂, IMM MgCl₂, 0.1% BSA) and the cells were adjusted to 2×10⁶ cells/ml in binding buffer. Millipore plates (MAFB NOB) were coated with 1% nonfat dry milk in water and stored a 4° C. overnight. The plates were washed three times with 0.2 ml of binding buffer. Twenty-five microliters of buffer alone was added to the wells (non-specific binding). A fixed concentration of ¹²⁵I-anti-PSMA antibody was added to all wells in a volume of 25 μl. Varying concentrations of unlabeled antibody was added to wells in a volume of 25 μl and 25 μl of LNCaP cells (2×10⁶ cells/ml) in binding buffer were added to all wells. The plates were incubated for 2 hours at 200 RPM on a shaker at 4° C. At the completion of the incubation the Millipore plates were washed three times with 0.2 ml of cold wash buffer (24 mM Tris pH 7.2, 500mM NaCl, 2 mM KCl, 2 mM Glucose, 1 mM CaCl₂, 1 mM MgCl₂, 0.1% BSA). The filters were removed and counted in a gamma counter. Evaluation of equilibrium binding was performed using single site binding parameters with the Prism software (San Diego, Calif.). An isotype control antibody was used as a negative control. […]

Test [6] has the same target. Kind of test: radioligand competition on LNCaP cells: unlabeled antibody varied against a fixed concentration of 125I-2A10. The protocol: as §1

Substitutions are numbered along the chain they refer to.

T1 sequence (Q04609 whole entry): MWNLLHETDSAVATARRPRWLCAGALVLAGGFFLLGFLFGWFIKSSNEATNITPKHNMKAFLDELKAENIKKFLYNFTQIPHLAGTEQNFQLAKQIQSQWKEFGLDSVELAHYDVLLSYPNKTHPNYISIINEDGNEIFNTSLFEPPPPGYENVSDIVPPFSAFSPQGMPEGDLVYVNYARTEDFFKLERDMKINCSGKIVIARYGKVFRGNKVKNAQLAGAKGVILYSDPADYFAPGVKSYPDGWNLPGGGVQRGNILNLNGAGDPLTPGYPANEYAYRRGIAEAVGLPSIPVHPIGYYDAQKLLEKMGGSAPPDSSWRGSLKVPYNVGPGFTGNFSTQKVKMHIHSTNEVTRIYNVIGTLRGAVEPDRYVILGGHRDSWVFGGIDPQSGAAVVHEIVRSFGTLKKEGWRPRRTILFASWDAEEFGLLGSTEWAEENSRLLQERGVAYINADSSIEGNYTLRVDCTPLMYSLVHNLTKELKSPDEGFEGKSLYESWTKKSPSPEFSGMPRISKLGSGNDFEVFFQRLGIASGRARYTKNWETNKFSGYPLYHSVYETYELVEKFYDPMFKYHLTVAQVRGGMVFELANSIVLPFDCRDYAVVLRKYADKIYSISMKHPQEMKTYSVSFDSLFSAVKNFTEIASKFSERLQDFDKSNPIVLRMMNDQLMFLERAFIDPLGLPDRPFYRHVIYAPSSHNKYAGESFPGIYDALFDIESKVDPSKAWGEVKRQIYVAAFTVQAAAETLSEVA
T2 sequence (Q04609 whole entry): as above

B1: anti-PSMA human monoclonal antibody 2C6 (antibody, V domains shown)
VH: EVQLVQSGSEVKKPGESLKISCKGSGYSFTNYWIGWVRQMPGKGLEWMGIIYPGDSDTRYSPSFQGQVTISADKSISTAYLQWSSLKASDTAMYYCASPGYTSSWTSFDYWGQGTLVTVSS
VL: EIVLTQSPATLSLSPGERATLSCRASQSVSSYLAWYQQKPGQAPRLLIYDASNRATGIPARFSGSGSGTDFTLTISSLEPEDFAVYYCQQRSNWPLFTFGPGTKVDIK
For the molecule B1, the binding result in test [1] and in test [2] was “binds” throughout.

B2: anti-PSMA HuMAb antibody 2A10 conjugated to a toxin (antibody, V domains shown)
VH: EVQLVQSGAEVKKPGESLKISCKGSGYSFTSNWIGWVRQMPGKGLEWMGIIYPGDSDTRYSPSFQGQVTISADKSISTAYLQWSSLKASDTAMYYCARQTGFLWSSDLWGRGTLVTVSS
VL: AIQLTQSPSSLSASVGDRVTITCRASQDISSALAWYQQKPGKAPKLLIYDASSLESGVPSRFSGYGSGTDFTLTINSLQPEDFATYYCQQFNSYPLTFGGGTKVEIK
As to B2, in test [3], the “EC50, 3H-thymidine incorporation cell proliferation assay, continuous wash” value is 0.0643 nM and the “EC50, 3H-thymidine incorporation cell proliferation assay, three-hour wash” value worked out at 0.157 nM.

B3: anti-PSMA human monoclonal antibody 2F5 (antibody, V domains shown)
VH: B2 VH with S84N, S106F
VL: AIQLTQSPSSLSASVGDRVTITCRASQDISSALAWYQQKPGKAPKLLIYDASSLESGVPSRFSGSGSGTDFTLTISSLQPEDFATYYCQQFNSYPLTFGGGTKVEIKI
For the molecule B3, the “EC50 (read off the curve)” value is about 0.8 µg/mL in test [1] and about 40 ng/mL in test [2].

B4: anti-PSMA human monoclonal antibody 2A10 (antibody, V domains shown)
VH: B2 VH
VL: B2 VL
notes: also called anti-PSMA HuMAb 2A10
Take B4: in test [4], the Kd is about 0.8 nM. Besides, the “EC50 (read off the curve)” value is about 0.7 µg/mL in test [1] and about 40 ng/mL in test [2]. The “IC50 (read off the curve)” value in test [5] is about 1 nM; in test [6], 1 to 2 nM.

B5: anti-PSMA human monoclonal antibody 1C3 (antibody, V domains shown)
VH: QVQLVESGGGVVQPGRSLRLSCAASGFTFSSYAMHWVRQAPGKGLEWVAVISYDGNNKYYADSVKGRFTISRDNSKNTLYLQMNSLRAEDTAVYYCARAVPWGSRYYYYGMDVWGQGTTVTVSS
VL: B2 VL with D28G, P40S, Y49F, Y65S, N76S
On to B5, for which, in test [2], the binding result is on record as “binds”.

The record behind these values is patent US20090297438A1 (published 2009).
